Source: IntAct's records for PubMed 25910212

B1: ATP synthase mitochondrial F1 complex assembly factor 2 (Homo sapiens), Q8N5M1 (parent)
chain: MWRSCLRLRDGGRRLLNRPAGGPSASMSPGPTIPSPARAYAPPTERKRFYQNVSITQGEGGFEINLDHRKLKTPQAKLFTVPSEALAIAVATEWDSQQDTIKYYTMHLTTLCNTSLDNPTQRNKDQLIRAAVKFLDTDTICYRVEEPETLVELQRNEWDPIIEWAEKRYGVEISSSTSIMGPSIPAKTREVLVSHLASYNTWALQGIEFVAAQLKSMVLTLGLIDLRLTVEQAVLLSRLEEEYQIQKWGNIEWAHDYELQELRARTAAGTLFIHLCSESTTVKHKLLKE
B2: LHFPL tetraspan subfamily member 5 protein (Homo sapiens), Q8TAF8 (parent)
chain: MVKLLPAQEAAKIYHTNYVRNSRAVGVMWGTLTICFSVLVMALFIQPYWIGDSVNTPQAGYFGLFSYCVGNVLSSELICKGGPLDFSSIPSRAFKTAMFFVALGMFLIIGSIICFSLFFICNTATVYKICAWMQLAAATGLMIGCLVYPDGWDSSEVRRMCGEQTGKYTLGHCTIRWAFMLAILSIGDALILSFLAFVLGYRQDKLLPDDYKADGTEEV
partner: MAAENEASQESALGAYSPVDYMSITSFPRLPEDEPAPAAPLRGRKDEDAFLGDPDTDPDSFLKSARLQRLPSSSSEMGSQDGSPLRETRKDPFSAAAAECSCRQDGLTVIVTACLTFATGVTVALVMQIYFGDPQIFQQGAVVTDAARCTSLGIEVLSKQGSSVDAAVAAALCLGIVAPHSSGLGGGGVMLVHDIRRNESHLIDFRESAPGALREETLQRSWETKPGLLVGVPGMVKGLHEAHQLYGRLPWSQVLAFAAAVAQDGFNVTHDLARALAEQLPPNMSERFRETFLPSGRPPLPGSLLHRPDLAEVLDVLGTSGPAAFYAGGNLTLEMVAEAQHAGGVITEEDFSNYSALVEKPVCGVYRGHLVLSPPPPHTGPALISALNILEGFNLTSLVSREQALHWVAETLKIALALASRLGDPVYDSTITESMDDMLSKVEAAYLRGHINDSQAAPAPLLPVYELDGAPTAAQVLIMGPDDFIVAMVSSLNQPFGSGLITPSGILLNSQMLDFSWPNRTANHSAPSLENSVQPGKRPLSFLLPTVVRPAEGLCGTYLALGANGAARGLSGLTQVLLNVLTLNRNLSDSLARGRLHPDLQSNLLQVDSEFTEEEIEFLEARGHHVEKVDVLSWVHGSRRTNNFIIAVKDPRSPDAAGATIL
B3: Aspartoacylase (Homo sapiens), P45381 (parent)
chain: MTSCHIAEEHIQKVAIFGGTHGNELTGVFLVKHWLENGAEIQRTGLEVKPFITNPRAVKKCTRYIDCDLNRIFDLENLGKKMSEDLPYEVRRAQEINHLFGPKDSEDSYDIIFDLHNTTSNMGCTLILEDSRNNFLIQMFHYIKTSLAPLPCYVYLIEHPSLKYATTRSIAKYPVGIEVGPQPQGVLRADILDQMRKMIKHALDFIHHFNEGKEFPPCAIEVYKIIEKVDYPRDENGEIAAIIHPNLQDQDWKPLHPGDPMFLTLDGKTIPLGGDCTVYPVFVNEAAYYEKKEAFAKTTKLTLNAKSIRCCLH
partner: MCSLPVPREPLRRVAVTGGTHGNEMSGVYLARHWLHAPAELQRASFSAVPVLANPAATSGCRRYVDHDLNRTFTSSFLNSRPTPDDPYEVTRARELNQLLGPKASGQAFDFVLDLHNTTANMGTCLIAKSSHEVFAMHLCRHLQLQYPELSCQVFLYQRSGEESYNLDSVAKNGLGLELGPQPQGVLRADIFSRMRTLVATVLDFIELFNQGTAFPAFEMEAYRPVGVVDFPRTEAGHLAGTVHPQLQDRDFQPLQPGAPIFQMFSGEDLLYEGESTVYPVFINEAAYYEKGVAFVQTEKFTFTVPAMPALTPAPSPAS

Variants of: B1
Conditions: with ikzf3_human IKZF3, Q9UKT9
Sequence of ikzf3_human IKZF3, Q9UKT9 (Q9UKT9 whole entry): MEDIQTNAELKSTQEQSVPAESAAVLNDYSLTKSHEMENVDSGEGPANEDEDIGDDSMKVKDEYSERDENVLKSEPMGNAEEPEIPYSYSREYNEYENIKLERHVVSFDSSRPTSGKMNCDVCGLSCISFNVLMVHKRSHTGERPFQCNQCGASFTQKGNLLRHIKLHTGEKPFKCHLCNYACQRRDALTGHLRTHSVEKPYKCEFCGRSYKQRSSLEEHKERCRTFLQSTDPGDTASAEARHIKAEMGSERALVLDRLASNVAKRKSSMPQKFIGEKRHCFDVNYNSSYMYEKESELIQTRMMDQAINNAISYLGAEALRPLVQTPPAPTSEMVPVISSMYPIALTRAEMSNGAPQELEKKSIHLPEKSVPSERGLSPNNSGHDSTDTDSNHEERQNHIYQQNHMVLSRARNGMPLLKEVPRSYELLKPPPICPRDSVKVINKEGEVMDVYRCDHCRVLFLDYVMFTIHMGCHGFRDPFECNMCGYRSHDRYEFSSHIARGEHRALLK

Row | effect of a mutation on the interaction | Variant
1 | disrupting interaction strength | MWRSCLRLRDGGRRLLNRPAGGPSASMSPGPTIPSPARAYAPPTERKRFYQNVSITQGEGGFEINLDHRKLKTPQAKLFTVPSEALAIAVATERDSQQDTIKYYTMHLTTLCNTSLDNPTQRNKDQLIRAAVKFLDTDTICYRVEEPETLVELQRNEWDPIIEWAEKRYGVEISSSTSIMGPSIPAKTREVLVSHLASYNTWALQGIEFVAAQLKSMVLTLGLIDLRLTVEQAVLLSRLEEEYQIQKWGNIEWAHDYELQELRARTAAGTLFIHLCSESTTVKHKLLKE [W94R]

Variants of: B1
Conditions: with pak5_human PAK5, Q9P286
Sequence of pak5_human PAK5, Q9P286 (Q9P286 whole entry, looked up): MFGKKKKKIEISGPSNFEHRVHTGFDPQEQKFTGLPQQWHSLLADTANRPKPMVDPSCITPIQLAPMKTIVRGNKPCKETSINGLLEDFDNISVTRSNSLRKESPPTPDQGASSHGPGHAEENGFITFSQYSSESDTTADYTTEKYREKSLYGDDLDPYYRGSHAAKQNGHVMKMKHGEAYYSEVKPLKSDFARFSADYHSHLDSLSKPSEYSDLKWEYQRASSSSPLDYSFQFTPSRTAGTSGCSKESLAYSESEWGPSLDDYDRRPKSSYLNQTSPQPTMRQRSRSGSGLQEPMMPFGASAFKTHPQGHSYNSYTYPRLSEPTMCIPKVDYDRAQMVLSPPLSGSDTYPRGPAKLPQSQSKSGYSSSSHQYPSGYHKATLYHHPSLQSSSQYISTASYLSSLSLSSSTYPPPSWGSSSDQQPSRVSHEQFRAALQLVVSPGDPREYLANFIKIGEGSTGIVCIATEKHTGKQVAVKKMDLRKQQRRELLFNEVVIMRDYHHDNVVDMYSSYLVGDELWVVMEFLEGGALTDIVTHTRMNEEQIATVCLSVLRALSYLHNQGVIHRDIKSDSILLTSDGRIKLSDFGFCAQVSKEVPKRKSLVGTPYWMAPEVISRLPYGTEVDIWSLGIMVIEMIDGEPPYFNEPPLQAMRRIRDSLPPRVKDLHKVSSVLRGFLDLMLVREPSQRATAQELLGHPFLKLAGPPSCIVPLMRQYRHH

Row | effect of a mutation on the interaction | Variant
2 | disrupting interaction strength | MWRSCLRLRDGGRRLLNRPAGGPSASMSPGPTIPSPARAYAPPTERKRFYQNVSITQGEGGFEINLDHRKLKTPQAKLFTVPSEALAIAVATERDSQQDTIKYYTMHLTTLCNTSLDNPTQRNKDQLIRAAVKFLDTDTICYRVEEPETLVELQRNEWDPIIEWAEKRYGVEISSSTSIMGPSIPAKTREVLVSHLASYNTWALQGIEFVAAQLKSMVLTLGLIDLRLTVEQAVLLSRLEEEYQIQKWGNIEWAHDYELQELRARTAAGTLFIHLCSESTTVKHKLLKE [W94R]

Variants of: B1
Conditions: with maga6_human MAGEA6, P43360
Sequence of maga6_human MAGEA6, P43360 (P43360 whole entry): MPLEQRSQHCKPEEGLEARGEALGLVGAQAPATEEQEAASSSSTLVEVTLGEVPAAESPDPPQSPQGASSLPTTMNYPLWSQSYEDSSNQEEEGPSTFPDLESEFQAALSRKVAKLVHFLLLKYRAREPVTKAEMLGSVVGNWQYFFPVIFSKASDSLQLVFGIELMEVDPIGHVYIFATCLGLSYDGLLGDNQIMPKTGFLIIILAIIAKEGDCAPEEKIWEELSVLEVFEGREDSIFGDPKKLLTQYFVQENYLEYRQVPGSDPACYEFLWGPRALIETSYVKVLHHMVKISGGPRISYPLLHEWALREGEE

Row | effect of a mutation on the interaction | Variant
3 | disrupting interaction strength | MWRSCLRLRDGGRRLLNRPAGGPSASMSPGPTIPSPARAYAPPTERKRFYQNVSITQGEGGFEINLDHRKLKTPQAKLFTVPSEALAIAVATERDSQQDTIKYYTMHLTTLCNTSLDNPTQRNKDQLIRAAVKFLDTDTICYRVEEPETLVELQRNEWDPIIEWAEKRYGVEISSSTSIMGPSIPAKTREVLVSHLASYNTWALQGIEFVAAQLKSMVLTLGLIDLRLTVEQAVLLSRLEEEYQIQKWGNIEWAHDYELQELRARTAAGTLFIHLCSESTTVKHKLLKE [W94R]

Variants of: B1
Conditions: with lzts2_human LZTS2, Q9BRK4
Sequence of lzts2_human LZTS2, Q9BRK4 (Q9BRK4 whole entry): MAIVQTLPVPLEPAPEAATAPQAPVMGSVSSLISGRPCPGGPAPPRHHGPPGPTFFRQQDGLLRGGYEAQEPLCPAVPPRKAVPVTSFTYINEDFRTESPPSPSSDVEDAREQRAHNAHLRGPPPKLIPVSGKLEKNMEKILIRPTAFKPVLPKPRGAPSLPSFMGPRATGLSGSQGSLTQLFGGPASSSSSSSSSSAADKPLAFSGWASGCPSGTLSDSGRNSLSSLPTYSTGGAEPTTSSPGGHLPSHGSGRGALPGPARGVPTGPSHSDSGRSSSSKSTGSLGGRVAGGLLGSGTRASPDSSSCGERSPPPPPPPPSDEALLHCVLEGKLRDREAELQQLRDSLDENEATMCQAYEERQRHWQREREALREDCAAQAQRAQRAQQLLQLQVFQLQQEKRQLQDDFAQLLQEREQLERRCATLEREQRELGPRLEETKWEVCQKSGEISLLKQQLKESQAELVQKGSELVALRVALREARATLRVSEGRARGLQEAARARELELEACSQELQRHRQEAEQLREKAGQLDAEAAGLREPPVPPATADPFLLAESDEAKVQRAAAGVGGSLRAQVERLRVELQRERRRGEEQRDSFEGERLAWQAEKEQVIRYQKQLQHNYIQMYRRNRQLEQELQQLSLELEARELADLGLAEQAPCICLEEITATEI

Row | effect of a mutation on the interaction | Variant
4 | disrupting interaction strength | MWRSCLRLRDGGRRLLNRPAGGPSASMSPGPTIPSPARAYAPPTERKRFYQNVSITQGEGGFEINLDHRKLKTPQAKLFTVPSEALAIAVATERDSQQDTIKYYTMHLTTLCNTSLDNPTQRNKDQLIRAAVKFLDTDTICYRVEEPETLVELQRNEWDPIIEWAEKRYGVEISSSTSIMGPSIPAKTREVLVSHLASYNTWALQGIEFVAAQLKSMVLTLGLIDLRLTVEQAVLLSRLEEEYQIQKWGNIEWAHDYELQELRARTAAGTLFIHLCSESTTVKHKLLKE [W94R]

Variants of: B1
Conditions: with KRT40, Q6A162
Sequence of KRT40, Q6A162 (Q6A162 whole entry): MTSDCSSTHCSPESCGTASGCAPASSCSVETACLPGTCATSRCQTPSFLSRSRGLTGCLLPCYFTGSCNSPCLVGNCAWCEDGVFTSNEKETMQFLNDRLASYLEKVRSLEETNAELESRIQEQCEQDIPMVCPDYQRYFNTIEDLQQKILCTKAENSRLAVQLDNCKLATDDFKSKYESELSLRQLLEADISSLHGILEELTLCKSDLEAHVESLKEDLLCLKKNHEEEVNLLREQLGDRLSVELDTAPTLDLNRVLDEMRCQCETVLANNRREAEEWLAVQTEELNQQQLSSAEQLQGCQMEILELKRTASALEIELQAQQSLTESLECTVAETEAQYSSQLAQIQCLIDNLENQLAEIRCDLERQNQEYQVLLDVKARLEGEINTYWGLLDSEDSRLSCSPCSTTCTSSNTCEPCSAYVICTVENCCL

Row | effect of a mutation on the interaction | Variant
5 | disrupting interaction strength | MWRSCLRLRDGGRRLLNRPAGGPSASMSPGPTIPSPARAYAPPTERKRFYQNVSITQGEGGFEINLDHRKLKTPQAKLFTVPSEALAIAVATERDSQQDTIKYYTMHLTTLCNTSLDNPTQRNKDQLIRAAVKFLDTDTICYRVEEPETLVELQRNEWDPIIEWAEKRYGVEISSSTSIMGPSIPAKTREVLVSHLASYNTWALQGIEFVAAQLKSMVLTLGLIDLRLTVEQAVLLSRLEEEYQIQKWGNIEWAHDYELQELRARTAAGTLFIHLCSESTTVKHKLLKE [W94R]

Variants of: B1
Conditions: with rpia_human RPIA

Row | effect of a mutation on the interaction | Variant
6 | disrupting interaction strength | MWRSCLRLRDGGRRLLNRPAGGPSASMSPGPTIPSPARAYAPPTERKRFYQNVSITQGEGGFEINLDHRKLKTPQAKLFTVPSEALAIAVATERDSQQDTIKYYTMHLTTLCNTSLDNPTQRNKDQLIRAAVKFLDTDTICYRVEEPETLVELQRNEWDPIIEWAEKRYGVEISSSTSIMGPSIPAKTREVLVSHLASYNTWALQGIEFVAAQLKSMVLTLGLIDLRLTVEQAVLLSRLEEEYQIQKWGNIEWAHDYELQELRARTAAGTLFIHLCSESTTVKHKLLKE [W94R]

Variants of: B1
Conditions: with ews_human EWSR1, Q01844
Sequence of ews_human EWSR1, Q01844 (Q01844 whole entry): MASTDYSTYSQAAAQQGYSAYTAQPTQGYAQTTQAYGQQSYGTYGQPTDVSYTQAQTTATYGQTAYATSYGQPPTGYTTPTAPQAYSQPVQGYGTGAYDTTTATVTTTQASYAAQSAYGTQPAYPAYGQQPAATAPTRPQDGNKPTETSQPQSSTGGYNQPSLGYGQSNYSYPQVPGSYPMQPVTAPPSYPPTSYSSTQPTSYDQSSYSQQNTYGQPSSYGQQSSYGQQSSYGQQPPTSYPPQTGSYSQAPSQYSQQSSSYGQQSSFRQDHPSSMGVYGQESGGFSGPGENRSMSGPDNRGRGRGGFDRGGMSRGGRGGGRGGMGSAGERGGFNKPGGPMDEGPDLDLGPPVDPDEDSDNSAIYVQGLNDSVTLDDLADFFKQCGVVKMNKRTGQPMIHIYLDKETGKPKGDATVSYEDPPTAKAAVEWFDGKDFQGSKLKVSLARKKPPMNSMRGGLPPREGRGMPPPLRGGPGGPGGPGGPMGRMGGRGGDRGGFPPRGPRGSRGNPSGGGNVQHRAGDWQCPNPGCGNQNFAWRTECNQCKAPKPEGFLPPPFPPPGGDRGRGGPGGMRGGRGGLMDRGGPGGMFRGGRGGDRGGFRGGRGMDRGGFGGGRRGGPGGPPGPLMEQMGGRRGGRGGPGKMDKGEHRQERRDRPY

Row | effect of a mutation on the interaction | Variant
7 | disrupting interaction strength | MWRSCLRLRDGGRRLLNRPAGGPSASMSPGPTIPSPARAYAPPTERKRFYQNVSITQGEGGFEINLDHRKLKTPQAKLFTVPSEALAIAVATERDSQQDTIKYYTMHLTTLCNTSLDNPTQRNKDQLIRAAVKFLDTDTICYRVEEPETLVELQRNEWDPIIEWAEKRYGVEISSSTSIMGPSIPAKTREVLVSHLASYNTWALQGIEFVAAQLKSMVLTLGLIDLRLTVEQAVLLSRLEEEYQIQKWGNIEWAHDYELQELRARTAAGTLFIHLCSESTTVKHKLLKE [W94R]

Variants of: B2
Conditions: with ggt7_human GGT7, Q9UJ14

Row | effect of a mutation on the interaction | Variant
8 | disrupting interaction strength | MVKLLPAQEAAKIYHTNYVRNSRAVGVMWGTLTICFSVLVMALFIQPYWIGDSVNTPQAGYFGLFSYCVGNVLSSELICKGGPLDFSSIPSRAFKTAMFFVALGMFLIIGSIICFSLFFICNTATVCKICAWMQLAAATGLMIGCLVYPDGWDSSEVRRMCGEQTGKYTLGHCTIRWAFMLAILSIGDALILSFLAFVLGYRQDKLLPDDYKADGTEEV [Y127C]
9 | disrupting interaction strength | MVKLLPAQEAAKIYHTNYVRNSRAVGVMWGTLTICFSVLVMALFIQPYWIGDSVNTPQAGYFGLFSYCVGNVLSSELICKGGPLDFSSIPSRAFKTAMFFVALGMFLIIGSIICFSLFFICNTATVYKICAWMQLAAATGLMIGCLVYPDGWDSSEVRRMCGEQMGKYTLGHCTIRWAFMLAILSIGDALILSFLAFVLGYRQDKLLPDDYKADGTEEV [T165M]

Variants of: B3
Conditions: with acy3_human ACY3, Q96HD9

Row | effect of a mutation on the interaction | Variant
10 | disrupting interaction strength | MTSCHIAEEHIQKVAIFGGTHGNELTGVFLVKHWLENGAEIQRTGLEVKPFITNPRAVKKCTRYIDCDLNRIFDLENLGKKMSEDLPYEVRRAQEINHLFGPKDSEDSYDIIFDLHNTTSNMGCTLILEDSRNNFLIQMFHYFKTSLAPLPCYVYLIEHPSLKYATTRSIAKYPVGIEVGPQPQGVLRADILDQMRKMIKHALDFIHHFNEGKEFPPCAIEVYKIIEKVDYPRDENGEIAAIIHPNLQDQDWKPLHPGDPMFLTLDGKTIPLGGDCTVYPVFVNEAAYYEKKEAFAKTTKLTLNAKSIRCCLH [I143F]

Variants of: B3
Conditions: with acy3_human ACY3, Q96HD9
Remark: another data set of the same source

Row | effect of a mutation on the interaction | Variant
11 | disrupting interaction strength | MTSCHIAEEHIQKVAIFGGTHGNELTGVFLVKHWLENGAEIQRTGLEVKPFITNPRAVKKCTRYIDCDLNRIFDLENLGKKMSEDLPYEVRRAQEINHLFGPKDSEDSYDIIFDLHNTTSNMGCTLILEDSRNNFLIQMFHYIKTSLAPLPCYVYLIEHPSLKYATTRSIAKYPVGIEVGPQPQGVLRADILDQMRKMIKHALDFIHHFNEGKEFPPCAIEVYKIIEKVDYPRDENGEIAAIIHPNLQDQDWKPLHPGDPMFLTLDGKTIPLGGDCTVYPVFVNAAAYYEKKEAFAKTTKLTLNAKSIRCCLH [E285A]
